Experimental data reported in patent US8748572B2, “RNase a peptides, fragments and uses thereof” (priority 2006, dated 2014).
“Also recorded” adds a separate entry of the source. Marks after values point to notes of the source that are not given here.

B1: rRNase A-2: recombinant carboxy-terminal FLAG-tagged Gallus gallus leukocyte RNase A-2, SEQ ID NO: 4, GenBank DQ395276 (protein, listed as Gallus gallus)
chain: VPTYQDFLYKHMDFPKTSFPSNAAYCNVMMVRRGMTAHGRCKSFNTFVHTDPRNLNTLCINQPDQALRTTRRHFRITDCKLIRSHPTCRYSGNQFNRRVRVGCRGGLPVHLDGTSP
modifications: C-terminal FLAG tag
B2: rRNase A-1: recombinant carboxy-terminal FLAG-tagged Gallus gallus leukocyte RNase A-1, SEQ ID NO: 2, GenBank DQ395275 (protein, listed as Gallus gallus)
chain: VPTYQDFLRTHVDFPKTSFPNIAAYCNVMMVRRGINVHGRCKSLNTFVHTDPRNLNTLCINQPNRALRTTQQQLPVTDCKLIRSHPTCSYTGNQFNHRVRVGCWGGLPVHLDGTFP
modifications: C-terminal FLAG tag

Columns and labels:
chicken aortic rings = experiment: chick aortic ring assay (angiogenesis); assay type: cell-based; details: for blood vessel formation in aortic rings (in words) / Angiogenesis Scores: 2 μM recombinant RNase; for blood vessel formation in aortic rings (in words): ex vivo; for Angiogenesis Scores: 24 h, Mean ± SEM, 6 to 8 rings; for % change of angiogenesis score vs control: 2 μM, ([rRNase − control]×100/[control])
From the text: The angiogenic activity of a particular RNase A polypeptide or fragment can be assessed by known protocols, such as that described in the methods section and the following described protocol, herein referred to as “a standard angiogenesis assay.” For example, the chick aortic ring sprouting assay, described in the art, can be a standard angiogenesis assay according to the invention. In the assay, aortic arches are dissected from 13-day-old chicken embryos, cleaned free of unwanted tissue and cut into 0.8 mm slices. Each ring is transferred into center of a well of 96-well plate, and ice-cold Matrigel (Becton Dickinson, Bedford, Mass.) is added immediately to imbed the ring. After solidification of the Matrigel, human endothelial-SFM basal growth medium (Invitrogen) is added to each well. After addition of recombinant leukocyte RNase A-1 or RNase A-2 or control preparation, the rings are incubated at 37° C. for 24 h. Vessels sprouted from rings are observed under microscopy, and assessed by blinded observers.
Both chicken leukocyte RNases are structurally related to the mammalian angiogenin lineage, as discussed above and illustrated in FIG. 1. However, none of the non-mammalian ribonucleases evaluated thus far have been reported to have angiogenic activity. Here, the potential angiogenic activity of recombinant leukocyte RNases A-1 and A-2 was evaluated using the chick aortic ring assay as described in the literature. Briefly, aortic rings prepared from 13 day-old chick embryos were incubated with 2 μM recombinant leukocyte RNases (rRNases).
Table 1 details the results of the chick aortic ring assay. Specifically, vessels sprouted from aortic rings treated with 100 μl of human endothelial-SFM basal growth medium and 2 μM recombinant leukocyte RNase were observed under microscopy and assessed by blinded observers, according previously published methods. Each of the groups (named Exp. 1 and Exp. 2) were composed of 6 to 8 rings. Percent (%) change is a value that represents ([rRNase A-1 or A-2−control]×100/[control]). *p<0.05, as determined using the Student's t-test.
The chick aortic ring sprouting assay was performed as described previously with minor modifications. Aortic arches were dissected from 13-day-old chicken embryos, cleaned free of unwanted tissue and cut into 0.8 mm slices. Each ring was transferred into center of a well of 96-well plate. Ice-cold 10 μl of Matrigel (Becton Dickinson, Bedford, Mass.) were added immediately to imbed the ring. After the Matrigel was solidified, 100 μl of human endothelial-SFM basal growth medium (Invitrogen) was added to each well. After addition of recombinant leukocyte RNase A-1 or RNase A-2 or control preparation, the rings were incubated at 37° C. for 24 h. Vessels sprouted from rings were observed under microscopy, and assessed by blinded observers. Each groups composed of 6 to 8 rings.

isoelectric point = assay type: physicochemical
yeast tRNA = experiment: ribonuclease assay with yeast tRNA substrate; assay type: biochemical; details: for Optimum pH for RNase activity: 50 pmol rRNase, 40 mM sodium phosphate buffers pH 5.5 to 8.0; for Km / kcat: 40 mM sodium phosphate buffer
Protocol: FIGS. 4 A-D are graphs showing the ribonucleolytic activity of recombinant leukocyte RNases. (A) is a graph showing the optimum pH for RNase activity. Enzymatic activity was determined with 50 pmol rRNase A-1 (open squares) and rRNase A-2 (closed circles) that was incubated with 250 μg/ml yeast tRNA in 40 mM sodium phosphate buffer at the pHs indicated. Measurements of A260 per time were converted to pmol/s as described in […] and Methods. (B) is a graph showing the initial rates for RNase activity. Enzymatic activity was determined as described in (A) with 40 mM sodium phosphate buffer, pH 7.0. (C) is a graph showing the substrate preference for RNase activity. 50 pmol rRNase A-1 (left panel) and rRNase A-2 (right panel) proteins were incubated with 250 μg/ml of poly U (open squares), poly C (closed circles), poly A (open diamonds), poly G (open triangles) and poly I (open circles) in 40 mM sodium phosphate buffers, pH 7.0. A260 was measured after precipitation of undigested RNA at each of the time points indicated. (D) is two panels of graphs showing interaction of RNase with human placental RNase inhibitor (hPR1). RNase activity was measured with […] of bovine pancreatic RNase (left) or […] rRNase A-1 and rRNase A-2 (right) with 250 μg/ml of yeast tRNA as substrate with (+) or without (−) 200 U human placental RNase inhibitor (hPR1) in 40 mM sodium phosphate buffer, pH 7.0. The hPR1 was added to the RNases in buffer 5 min prior to initiation of RNase assay by addition of substrate. *p<0.01.
Next, the enzymatic activity of the two recombinant leukocyte RNases was characterized. Optimum pH was determined as 7.0 with 50 pmol rRNase A-1 or A-2, with 200 μg yeast tRNA substrate in 40 mM sodium phosphate buffers ranging from pH 5.5 to 8.0, as shown in FIG. 4A. […] Enzymatic activity was measured using 10 pmol rRNase A-1 or rRNase in 40 mM sodium phosphate buffer, pH 7.0. Conversion from A260 to pmol ribonucleotide product was carried out as described in reference 29 and in the Methods.
The ribonuclease (RNase) assay with yeast tRNA substrate has been described in detail elsewhere. In this study, 10 μL of a 20 mg/ml solution of yeast tRNA, polyuridylic acid (poly U), polyadenylic acid (poly A), polycytidylic acid (poly C), polyguanylic acid (poly G), or polyinosinic acid (poly I) (Sigma-Aldrich) were added to 800 μl of 40 mM sodium phosphate buffer, pH 7.0 containing recombinant FLAG-tagged chicken RNase protein. In experiments in which the pH optimum was to be determined, 40 mM sodium phosphate buffers of pH 5.0, 5.5, 6.0, 6.5, […] or 8.0 were used instead of the buffer of pH 7.0. In some experiments, 200 U human placental RNase inhibitor (Boehringer Mannheim) were added prior to the addition of the tRNA substrate. Conversion of units A260 per unit time to pmol/s were performed as described in [29], based on the following conversion factors: the average molecular weight of a molecule of tRNA is 28,100 (75-90 ribonucleotides/tRNA molecule×341 MW per ribonucleotide) with an A260 of 1.0 corresponding to 40 μg of RNA.

Molecule	blood vessel formation in aortic rings (in words) (chicken aortic rings)	Angiogenesis Scores (chicken aortic rings; Exp. 1)	% change of angiogenesis score vs control (chicken aortic rings; Exp. 1)	Angiogenesis Scores (chicken aortic rings; Exp. 2)	% change of angiogenesis score vs control (chicken aortic rings; Exp. 2)	isoelectric point (pI) (isoelectric point)	Optimum pH for RNase activity (yeast tRNA)	Km (yeast tRNA; pH 7.0) [µM]	kcat (yeast tRNA; pH 7.0) [s⁻¹]	Km, times lower than that for RNase A-1 (yeast tRNA; pH 7.0) [times]	kcat, times lower than that for RNase A-1 (yeast tRNA; pH 7.0) [times]
B1	Prominent blood vessel formation; also recorded: has angiogenic activity ex vivo	0.68 ± 0.26* Arbitary Units	+84%	0.60 ± 0.14* Arbitary Units	+82%	11.0	7.0	0.5	0.056	34	50
B2	comparable to that in the control	0.38 ± 0.13 Arbitary Units	+2.7%	0.41 ± 0.06 Arbitary Units	+24%	10.2	7.0	17.2	2.61	–	–
